Data taken from the supplement of paper PMC9112550, “Optimization of the antimicrobial peptide Bac7 by deep mutational scanning” (BMC Biology, 2022).

Test system: Escherichia coli TOP10
Assay: shrunken log2 fold change of peptide-encoding DNA abundance (4.5 h post-induction vs induction); higher = less antimicrobial activity (less host growth inhibition)
Conditions: time post-induction: 4.5 h; library: site-saturation at positions 5, 18, 19, 20
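Further: peptides expressed intracellularly from a pBAD plasmid library in pooled LB shake-flask culture, induced with 0.3% L-arabinose, DNA abundance read by NGS, three biological replicates, DESeq2 with apeglm shrinkage.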

Row | Sequence | shrunken log2 fold change
1 | RRIRFRPPRLPRPRPRPWQQPRP | -0.104
2 | RRIRKRPPRLPRPRPRPGLGPRP | 0.406
3 | RRIRHRPPRLPRPRPRPEGCPRP | 0.0614
4 | RRIRWRPPRLPRPRPRPIVCPRP | 0.0105
5 | RRIRCRPPRLPRPRPRPMPNPRP | -0.368
6 | RRIRCRPPRLPRPRPRPIHDPRP | -0.264
7 | RRIRGRPPRLPRPRPRPLQVPRP | 0.458
8 | RRIRVRPPRLPRPRPRPHNSPRP | -0.23
9 | RRIRKRPPRLPRPRPRPDNFPRP | -0.0455
10 | RRIRERPPRLPRPRPRPPETPRP | -0.0785
11 | RRIRMRPPRLPRPRPRPTQIPRP | 0.386
12 | RRIRNRPPRLPRPRPRPIGDPRP | -0.0116
13 | RRIRSRPPRLPRPRPRPSKWPRP | -0.285
14 | RRIRLRPPRLPRPRPRPHNRPRP | -0.205
15 | RRIRRRPPRLPRPRPRPWCQPRP | -0.26
16 | RRIRIRPPRLPRPRPRPIGTPRP | -0.792
17 | RRIRERPPRLPRPRPRPMHDPRP | -0.286
18 | RRIRRRPPRLPRPRPRPNTQPRP | 0.0214
19 | RRIRERPPRLPRPRPRPIDMPRP | -0.123
20 | RRIRTRPPRLPRPRPRPEWTPRP | 0.188

Row | Sequence | shrunken log2 fold change
21 | RRIRWRPPRLPRPRPRPDKCPRP | -0.134
22 | RRIRTRPPRLPRPRPRPYSVPRP | -0.027
23 | RRIRLRPPRLPRPRPRPKSHPRP | -0.261
24 | RRIRIRPPRLPRPRPRPQFPPRP | -0.0492
25 | RRIRGRPPRLPRPRPRPMNMPRP | -0.318
26 | RRIRWRPPRLPRPRPRPIKTPRP | 0.00902
27 | RRIRYRPPRLPRPRPRPGYGPRP | -0.541
28 | RRIRLRPPRLPRPRPRPYCKPRP | -0.736
29 | RRIRSRPPRLPRPRPRPATHPRP | -0.0838
30 | RRIRARPPRLPRPRPRPWEGPRP | 0.209
31 | RRIRFRPPRLPRPRPRPSITPRP | -0.262
32 | RRIRPRPPRLPRPRPRPNPKPRP | 0.0202
33 | RRIRYRPPRLPRPRPRPQVWPRP | -0.0375
34 | RRIRDRPPRLPRPRPRPNSFPRP | -0.0585
35 | RRIRYRPPRLPRPRPRPIDFPRP | -0.245
36 | RRIRWRPPRLPRPRPRPVSEPRP | 0.0771
37 | RRIRLRPPRLPRPRPRPNYPPRP | -0.156
38 | RRIRDRPPRLPRPRPRPEYKPRP | 0.27
39 | RRIRLRPPRLPRPRPRPKGQPRP | -0.11
40 | RRIRERPPRLPRPRPRPATKPRP | 0.156

Row | Sequence | shrunken log2 fold change
41 | RRIRVRPPRLPRPRPRPMPWPRP | 0.056
42 | RRIRNRPPRLPRPRPRPNEHPRP | -0.071
43 | RRIRPRPPRLPRPRPRPRYTPRP | -0.266
44 | RRIRDRPPRLPRPRPRPDVAPRP | 0.0356
45 | RRIRDRPPRLPRPRPRPSGNPRP | 0.499
46 | RRIRLRPPRLPRPRPRPDAHPRP | 0.133
47 | RRIRGRPPRLPRPRPRPIWQPRP | 0.349
48 | RRIRMRPPRLPRPRPRPIKRPRP | 0.0532
49 | RRIRNRPPRLPRPRPRPKEVPRP | 0.0999
50 | RRIRARPPRLPRPRPRPFDLPRP | 0.0229
51 | RRIRSRPPRLPRPRPRPSQPPRP | -0.14
52 | RRIRARPPRLPRPRPRPMHRPRP | -0.137
53 | RRIRSRPPRLPRPRPRPMNQPRP | -0.0276
54 | RRIRLRPPRLPRPRPRPDRLPRP | -0.0156
55 | RRIRWRPPRLPRPRPRPSWCPRP | -0.0416
56 | RRIRARPPRLPRPRPRPCTRPRP | -0.00176
57 | RRIRCRPPRLPRPRPRPPLHPRP | 0.135
58 | RRIRLRPPRLPRPRPRPKYFPRP | -0.269
59 | RRIRTRPPRLPRPRPRPTWSPRP | 0.256
60 | RRIRERPPRLPRPRPRPYPSPRP | -0.967
